From the supplement of paper PMC10126150
± gives the standard deviation of the averaged measurements.

Tested on: ATP
Assay: switch fluorescence ratio, 500 uM ATP over buffer (Cy3 cluster intensity, sum of 5 cycles each) (fold (ratio)); higher = stronger signal-on switching upon ATP binding; sequences stand for … in TCGTCGGCAGCGTCAGATGTGTATAAGAGACAGTTTTTTTTTTTTTTTTTTTTTTTTT…TC
Conditions: aptamer strand: ATP DNA aptamer (quencher-CACCTGGGGGAGTATTGCGGAGGAAGG + anchor), 100 nM annealed; ATP concentration: 500 uM
Outline: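 Cy3-labelled switching-strand clusters on a modified Illumina MiSeq flow-cell were annealed to 100 nM quencher-labelled ATP aptamer and imaged first in selection buffer, then after 15 min with 500 uM ATP at 22 °C. NaOH stripping and re-annealing separated each of five buffer/ATP cycles, and clusters outside 100-1000 RFU were excluded. The fluorescence ratio sums target-cycle Cy3 intensity over buffer-cycle Cy3 intensity per cluster and averages it per switch-domain sequence.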
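Note: ATP exposure 15 min at 22 °C before imaging.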

Sequence | switch fluorescence ratio
ATTCCTCGAC | 1.67 ± 0.11
ATTCCTTTTT | 0.9996 ± 0.0094
ATTCGAATCG | 1.05 ± 0.12
ATTCGAATGT | 0.9994 ± 0.0013
ATTCGAGCTG | 1.002 ± 0.0034
ATTCGAGGTT | 0.987 ± 0.071
ATTCGCATGT | 1.15 ± 0.04
ATTCGCTGCT | 1 ± 0.02
ATTCGGAGGG | 0.984 ± 0.011
ATTCGGGATA | 1 ± 0.02
ATTCGGGATG | 0.979 ± 0.017
ATTCGGGCCA | 1.01 ± 0.037
ATTCGGTAGT | 1 ± 0.013
ATTCGGTTAT | 1.01 ± 0.045
ATTCGTATAT | 0.969 ± 0.051
ATTCGTCAAT | 1.18 ± 0.13
ATTCGTCTAG | 0.989 ± 0.012
ATTCGTGTTT | 0.978 ± 0.017
ATTCGTTTGC | 1 ± 0.057
ATTCTCAGTG | 1.01 ± 0.038
ATTCTCCATT | 1.0229 ± 0.00088
ATTCTGACCG | 1.09 ± 0.068
ATTCTGAGGC | 1.03 ± 0.045
ATTCTTCGC | 1.06 ± 0.011
ATTCTTTCTT | 1.002 ± 0.0018

Sequence | switch fluorescence ratio
ATTGAAGCTT | 1.009 ± 0.0089
ATTGAAGGGA | 1.018 ± 0.0059
ATTGAAGGGG | 0.975 ± 0.016
ATTGAATGGT | 1.006 ± 0.0027
ATTGACATAT | 1.054 ± 0.0046
ATTGACGTGT | 1 ± 0.035
ATTGACTGAT | 1.03 ± 0.044
ATTGAGAGAT | 1.03 ± 0.014
ATTGAGCTGT | 0.9812 ± 0.0062
ATTGAGGCAA | 1.22 ± 0.066
ATTGAGGGGG | 1.04 ± 0.052
ATTGAGGGTT | 0.985 ± 0.019
ATTGAGTAA | 0.976 ± 0.025
ATTGAGTAGC | 1.01 ± 0.032
ATTGAGTTTA | 0.99883 ± 7e-05
ATTGATATTT | 0.998 ± 0.019
ATTGATCTCG | 1.04 ± 0.083
ATTGATGGGC | 0.9644 ± 0.0037
ATTGATGTTC | 0.99 ± 0.053
ATTGATTAGT | 1.12 ± 0.18
ATTGATTGAC | 1.05 ± 0.043
ATTGATTGAG | 0.986 ± 0.022
ATTGATTTAA | 0.9989 ± 0.0086
ATTGCAAATC | 1.027 ± 0.0094
ATTGCAGTTT | 0.986 ± 0.022

Sequence | switch fluorescence ratio
ATTGCCACGG | 1.033 ± 0.0089
ATTGCCGCTC | 1.04 ± 0.036
ATTGCGATTC | 1.159 ± 0.01
ATTGCGGTCA | 1.01 ± 0.048
ATTGCTCGA | 0.993 ± 0.02
ATTGCTGGCG | 0.939 ± 0.039
ATTGGAAGGC | 0.967 ± 0.017
ATTGGACGTT | 0.988 ± 0.016
ATTGGAGCAG | 1.055 ± 0.0098
ATTGGATCGA | 1.01 ± 0.054
ATTGGATCGG | 0.9956 ± 0.0095
ATTGGCAAAA | 1.01 ± 0.035
ATTGGCATGC | 0.996 ± 0.027
ATTGGGCGAG | 0.993 ± 0.013
ATTGGGGGGA | 0.982 ± 0.018
ATTGGGGGGG | 1.02 ± 0.044
ATTGGGGTG | 1.03 ± 0.11
ATTGGGGTTC | 1.01 ± 0.067
ATTGGGGTTG | 1 ± 0.017
ATTGGGTATT | 0.9749 ± 0.007
ATTGGGTCTA | 0.978 ± 0.021
ATTGGGTGTC | 0.985 ± 0.039
ATTGGTAACG | 0.9981 ± 0.0037
ATTGGTAGGC | 1.03 ± 0.023
ATTGGTAGTT | 0.9687 ± 0.0067

Sequence | switch fluorescence ratio
ATTGGTCAAG | 0.985 ± 0.039
ATTGGTCTGC | 1.02 ± 0.04
ATTGGTGTCT | 1.01 ± 0.034
ATTGGTTGTT | 1.01 ± 0.036
ATTGGTTTAA | 0.9981 ± 0.002
ATTGGTTTCG | 0.9835 ± 0.0051
ATTGGTTTGT | 0.998 ± 0.013
ATTGGTTTTT | 1.07 ± 0.19
ATTGTACAGT | 1.02 ± 0.025
ATTGTACGCT | 1.015 ± 0.0056
ATTGTAGAGC | 1.02 ± 0.01
ATTGTAGGGA | 1 ± 0.015
ATTGTGATCT | 0.989 ± 0.021
ATTGTGCATT | 0.979 ± 0.052
ATTGTGCGTA | 0.9711 ± 0.0057
ATTGTGTCAC | 1 ± 0.028
ATTGTGTCTA | 0.9935 ± 0.007
ATTGTGTCTT | 0.99 ± 0.013
ATTGTGTGGG | 0.999 ± 0.036
ATTGTGTTAG | 1.03 ± 0.055
ATTGTTAATT | 1.013 ± 0.01
ATTGTTACGG | 0.998 ± 0.024
ATTGTTCTCC | 1.04 ± 0.057
ATTGTTGCTG | 0.993 ± 0.061
ATTGTTTCTA | 1 ± 0.014

Sequence | switch fluorescence ratio
ATTGTTTTGA | 0.9818 ± 0.0088
ATTGTTTTTG | 1.01 ± 0.026
ATTTAAATGT | 1.01 ± 0.023
ATTTAAATTA | 1.01 ± 0.017
ATTTAACCCG | 1.02 ± 0.044
ATTTAACGGG | 1.006 ± 0.0056
ATTTAAGCTT | 1.07 ± 0.048
ATTTAAGGCT | 0.99 ± 0.012
ATTTAATTAC | 1.02 ± 0.0013
ATTTACAGAT | 1.04 ± 0.03
ATTTACATTT | 1.02 ± 0.011
ATTTACCGAA | 1.05 ± 0.019
ATTTACTCAT | 1.038 ± 0.0012
ATTTAGGATG | 1.01 ± 0.021
ATTTAGGCTG | 1.062 ± 0.0089
ATTTAGTTTT | 0.976 ± 0.013
ATTTATCTTT | 1 ± 0.032
ATTTATTATG | 0.989 ± 0.038
ATTTATTGAA | 0.996 ± 0.027
ATTTATTTCT | 1.03 ± 0.064
ATTTCAACGT | 0.9879 ± 0.0034
ATTTCAATTT | 1.01 ± 0.02
ATTTCAGCTG | 0.982 ± 0.027
ATTTCGAGTT | 0.972 ± 0.014
ATTTCGATTA | 0.9965 ± 0.0067

Sequence | switch fluorescence ratio
ATTTCGTGGT | 0.9759 ± 0.0096
ATTTCGTTTC | 1.05 ± 0.1
ATTTGAAGAG | 1.01 ± 0.014
ATTTGAAGCG | 0.998 ± 0.024
ATTTGAAGGC | 0.9629 ± 0.0082
ATTTGACTCT | 0.986 ± 0.021
ATTTGAGCTG | 0.947 ± 0.13
ATTTGAGGAT | 0.972 ± 0.027
ATTTGAGGTT | 1.006 ± 0.005
ATTTGATATG | 0.965 ± 0.031
ATTTGATTCA | 0.997 ± 0.012
ATTTGCCCGA | 1 ± 0.012
ATTTGCGTTT | 0.999 ± 0.019
ATTTGGAGG | 0.986 ± 0.013
ATTTGGATCT | 0.9725 ± 0.0068
ATTTGGGTTA | 1.01 ± 0.019
ATTTGGGTTT | 0.992 ± 0.027
ATTTGGTAAA | 0.9859 ± 0.009
ATTTGGTAAT | 0.952 ± 0.01
ATTTGGTGCT | 0.999 ± 0.018
ATTTGGTTAG | 0.987 ± 0.025
ATTTGTAAAG | 1 ± 0.034
ATTTGTATGT | 0.963 ± 0.013
ATTTGTGAGA | 0.9979 ± 0.0051
ATTTGTGCAG | 0.954 ± 0.013

Sequence | switch fluorescence ratio
ATTTGTGTGG | 0.973 ± 0.021
ATTTGTTAGA | 1.03 ± 0.021
ATTTGTTTAC | 1.011 ± 0.0065
ATTTGTTTAT | 1.09 ± 0.17
ATTTGTTTTG | 0.997 ± 0.053
ATTTTAAGTA | 0.987 ± 0.031
ATTTTAGAAT | 1.02 ± 0.03
ATTTTATGAC | 1.008 ± 0.0025
ATTTTATGCC | 1.01 ± 0.031
ATTTTATTAG | 1.01 ± 0.021
ATTTTCACC | 1.0095 ± 0.00081
ATTTTCGAGT | 1 ± 0.021
ATTTTCGGGG | 1.01 ± 0.039
ATTTTCGTTG | 0.9666 ± 0.0095
ATTTTGCGGA | 0.968 ± 0.013
ATTTTGCTTT | 0.965 ± 0.021
ATTTTGGCAA | 1.42 ± 0.3
ATTTTGGCTT | 0.963 ± 0.037
ATTTTGGGTT | 1 ± 0.022
ATTTTGTATG | 0.976 ± 0.026
ATTTTGTCCA | 1.02 ± 0.021
ATTTTGTCTC | 1.01 ± 0.013
ATTTTTAGGC | 1.11 ± 0.11
ATTTTTAGTG | 1.008 ± 0.0068
ATTTTTATGG | 0.996 ± 0.036

Sequence | switch fluorescence ratio
ATTTTTATTT | 1.07 ± 0.12
ATTTTTCGTT | 1 ± 0.03
ATTTTTCTAG | 1.01 ± 0.03
ATTTTTCTGC | 1.03 ± 0.039
ATTTTTGAGA | 0.986 ± 0.017
ATTTTTGAGG | 1.02 ± 0.017
ATTTTTGGCG | 0.9867 ± 0.0088
ATTTTTGGGC | 0.993 ± 0.024
ATTTTTGGTT | 1.01 ± 0.042
ATTTTTTCGA | 0.981 ± 0.014
ATTTTTTTT | 0.996 ± 0.024
CAAAAAAAAA | 1 ± 0.017
CAAAAAAATG | 0.999 ± 0.03
CAAAAAGATT | 1.01 ± 0.017
CAAAAAGGGG | 0.964 ± 0.039
CAAAAATGTT | 1.17 ± 0.19
CAAAACTACT | 1.06 ± 0.011
CAAAAGTAAC | 1.07 ± 0.032
CAAAAGTTGG | 0.9923 ± 0.0052
CAAAATATGC | 1.14 ± 0.12
CAAAATTTCG | 1.016 ± 0.0015
CAAACAGTTT | 0.994 ± 0.029
CAAACCAACG | 1.345 ± 0.0044
CAAACGCGCG | 0.997 ± 0.045
CAAACTTTGG | 1.006 ± 0.0077
